Data taken from the DeepSol protein solubility set.

Test: soluble on expression in E. coli; label from the status in PepcDB or PDB records

Sequence: MGSDKIHHHHHHMARLRVYELARKLNMSPKELLQELEELGVNVKSHMSYVDEEMANIIIDLLEEDNRKAKQPSKPKKEKGEEEVEKEVVEKKKKKKITLKPDELKLDIIAEKIGVPQNKIIQDMFVKRGIALRPGQILKLEEVEQILKEYKIEIEIEEEQQTSVEEVDEFELLEKRYQELYEKEKDKLVPRPPVVTVMGHVDHGKTTLLDRIRSTRVAEREEGGITQSIGAYQVEVNGKKITFIDTPGHELFTEMRARGAQATDIVVLVVAADDGVMPQTIEAYNHAKAANVPIIVAINKIDKPNANVEKTKQELVEKLGLIPEEWGGDTIVVPISARTGQGVDELLEMILLVAEMNEIKCYPEGPARAVIIESKLDKKMGPVASAIVKDGVLKVGDAVVASNTYGRVRNLFDDNMRPIREAYPSQPVMILGFEDVPDVHSNVYVVESAEKAKEIVEKRLQRLEAQKQSRKHINLEELMKMMQEKEKKVLNLILKADTYGSVAALKNAINKLQSKEIELNIVHAGVGEISTSDVMLAAAVDGVILGFRVKVNNQARRLAEQEGVDVRTYSIIYKLVEDLKLALEGMLEPEEVEEVIGHGEIRKVFKISKVGKVAGVQMLDGKADRNGFVRIYRNGQLVFGGKIESLKHYKEDVSVVEAPQECGIKFAGFDDIHEGDELEFYVIRKVKRKPTFVEEQADQEQK
- soluble on expression in E. coli: not soluble

Sequence: MAHHHHHHMRTDKCVSEAVQTFREAQNLLPTLYTHLSALENIMTQKGALVGAARRREQCFAKALPASHFLCMDTGTEERTLPQATTAGPSCVHTTSPVMTSPLGVLAAFSASTVHHLVAQHQRDVEELLGVVSRITQRSWSQKVEQLKSKIAQLERASEVGETPEHPPSAGGIVAVSSTPASSSYFATASELSVALYGFAACLLKMGNVLQETMLALRKDARLSLMAHAAPGSAALLTSTSADTASHLAAMLAREDRTSEGMSLLPMHSSHCGSLHEATSASSPFSGAAGVQAAPLQPMRLVDAVGKLKSFLEARWKSCCDSYLAPESHLLLALV
- soluble on expression in E. coli: soluble

Sequence: MDNMKRNMPYLPSFKLTDFDIKTLVQPILCPRSQEIQYYETLSKISTFAQSNINNDVFFSIIDNTFIQTLALQQIRFSLEKYPHQLHSFNIKLSCLADEDFVRELLSFHGAKFALEISELDCYTESKEIRENLSVLQANNIEIWLDDYHRNNKLANMSLGNILWDRIKIDKSFLKHADQESIQALEYFLAPFCLHGLIFEGAEYIEHHKMLKTSQSLTQGYYYFRPSPINSLDSKPRVAESIKLSYAG
- soluble on expression in E. coli: not soluble

Sequence: MDISMKQSKRNLWWSVCAGLLFCSWGCSSQVSDKPVTLETLLDEMVSVEEQALYPVPSYTCRQESSYDRASVSPDSAGWFANSDGFGIKRVDTVAGRIEKVMFDEVGPGAITRIWITTIDKRGTWRFYFDGSDQPGWIIPAYDLMRINVPGLGKGMLQAHTSYTPEGKGGNTLFLPIPYARGCKVTFEDEPGVNPTPKYYHINFRKYPEGTQVETFSKEVVERAAQKIAEVDNRLLQPVAGRKGEILREEKSILPSDSLVIPLPAGENAVYEVKFNIRIDNPEQYAQLMRELVFSAGFDGKQTVWVPLSDFSGGGMGAPKVDSWYLTSDGKGNISSRWLMPYQKDGVLKVLNLSSRSVAATMEVNVAPLKWNKDRSLYFYASWRQENGIYIHDKPEEADQCVEWNFATLKGRGVYKGDLLSLYNHAPLWYGEGDEKIWVDDDTFPSHFGTGTEDYYNSSWAPVVPFYTPFGGAPRADLESSHGYNAFYRTRHLDGIPFNKSFKFDIEMLGWKRGEADYATTIYWYGDPEAQVFGTSGIEEARRQLLPAVEASADLEHHHHHH
- soluble on expression in E. coli: soluble

Sequence: MSNFEKRNRKMAEKNIRKPKQERSIEKRNKILQVAKDLFSDKTYFNVTTNEIAKKADVSVGTLYAYFASKEDILTALLKRYNDFFLTTIFADINSQDSLDRFKKNPKEWLNVLINQLLAAEDKIFHAQIEMLAYAIPQAKALLEEHNNNLKNLTYKCLLYYSDQAANPSFKTLSLVVFDFISALVDELLYHEHTQEEAHQIKKTGIDSLDLIIKSYL
- soluble on expression in E. coli: soluble

Sequence: MGSDKIHHHHHHMKIGIDGRAAKWYRGTGIGTYTYQLISHINKLDEANDYTIFLPDSSNLNFKLKNNFSLKSINCTAKNNFWDQVNIPNIIKKDDTELYHVPQNGIGLPYNKNCRFTITLHDIIPYKMPETVGKKYLKIFEEEIPKIIPLCDGIITVSDFSKKDISEFFNYPESKIYVTYLSAEDIYRPIEKCISKDIIKNLYGIDKNYILYVGGFSPRKNISGIIHAFSKLKKTTKTNLKLIIAGKKGLSYPNYVDIAKKLNVSSDVIFPGFIPLEYMPFLYNAAEFLIYPSFYEGFGLPPLEAMACKVPVITSNITSLYEIFNGCALIVNPYDVEKIKDAMEIMYFDSSVRKIYSEKGFEFSKKLTWNSTAISTIKAYEKISKN
- soluble on expression in E. coli: not soluble

Sequence: MVRPPPFEFRPARPPGTRALQLEVITNIIWENAPMADLDALRSRFAHALAGATAPGATAGAGPGSGPDPAPYADNLLARWQEPQRRYHTLAHLTAVLDRVDVLAEHADDVAVVRLAAWFHDAVYQPDRSENEERSARLAERALPEAGVPAAKTAEVARLVRLTVTHAPAGDDRDGQVLCDADLAVLASPPSAYAAYTAAVREEYHFVPNEAFREGRAAILRQLLDLPSLFHTPYGRQEWEATARHNLTGELEMLSLPDTPDVLEHHHHHH
- soluble on expression in E. coli: not soluble

Sequence: MLPSAPAPLAHFLLFLHLIHSARPEDGVPIETIHAPMFEDVFDVRIHEGADKGSRLTMSQDLQKSTEPLGHCFGQLETDVDWIEWKSSRSAFYTTAQMPISATKNSNNLVGSLHLLCAGNQMHTFPFRVHITHRNHHPPTFSKNSFKFHVPTTLPIGSVITTLEVKDQDPVIYNSERRLAFTKDEPLVDILQDGTLKLKSDLSILTPYTPQRMQILAIDYGSPQLFTIANITLIPVTVSMVRELHVNVATEEYQIFEWEHPQYGTVDKYRLGIRRDDQVVYEEELEAAKTLALTKIMLSNSMNVSFQVTAIDENGETSSEWTQIGPIDRDVICKGECSRGGTPLCYVGAFNRVEQFIDARGAHCLCYPGFMGVSCETIGSMWTLTTLDVFVDLIRAMANKLNSIECSQIAI
- soluble on expression in E. coli: not soluble

Sequence: MGSDKIHHHHHHMNDQKNAAQVGLGLRREMLSEFCESVPEAINFFEVAPENWMTLGGKFGRQFRELTEQHTFYCHGLSLSIGSPEPLDLAFVKNIKTFMDLHQIQIYSEHLSYCSGQGHLYDLMPIPFTDAAVKHVAARVKQVEDILERPLILENVSFYAAPGARMSELEFVNAVLQEADCKLLLDVNNIYVNSINHQYDADTFLQAMPTERIAYLHIAGHYKQAEDLLIDTHGAAINDPVWALLQRCYALHGVKPTLLERDFNVPTTAELLLELNQIHAYQAAAPSSHIQNSAHVVKRIA
- soluble on expression in E. coli: not soluble

Sequence: MSEKSIVTKILRYLKTVPGCFCWKEHGGMYGTAGLPDIIACVNGRFIAFEVKTPSGKTTKLQEATIKKILNAGGVAAVVHSVDEVKVILEKHDLLQRTKI
- soluble on expression in E. coli: soluble

Sequence: GSHMLEVLTQKHKPAESQQQAAETEGSCNKKDQNECKSPCKWHNDAENKKCTLDKEEAKKVADETAKDGKTGNTNTTGSS
- soluble on expression in E. coli: soluble

Sequence: MSLDAGRHRVALLVPLTGANAAVGQSIANAATMALLDTNAANMRITTYDTASGAGSAASRAISDGNKLILGPLLGNDVVLVSNVARPAKVPMITYSNDSAVASRDVFVMGQAPGQSVARVLGFAKSKGIGSVAAIIPTGDYGQRAMNAVVDSGRALGVTVTAIETYDRGNTSVASAVRRVKEKGRFDALLIADGSRIALQAAPLAGKGVKLLGTELWSGEAAIAKSPATRGSWFAAVSDGRFGQFEKSYRTRFGATPSRLATLGYDSVLLTLNVARNWKPGTTFPTAKLYDPQGFIGLDGVFRFTASGMAERAMEVREVGAGTFTTVSPAEGHHHHHH
- soluble on expression in E. coli: soluble

Sequence: MSLFQITKSKLRFPLSTFTKRYSSFQAAKSVIDKAAIDGELRVFIVSGEVSGDNIGSRLMSSLKKLSPLPIRFNGVGGSLMCKKGLNSLFPMEDLAVMGVWELLPHLYKFRVKLKETIDAAVKFKPHVVVTVDSKGFSFRLLKELRGKQHKTCFIKLVRENHEGHHHHHH
- soluble on expression in E. coli: not soluble

Sequence: MTLDYHQPTTTNTTLPDDIHMKDPEEEEFEEYEDELLEEEEEFDEELEELENSDSASSLVSAGSPHGSSSSNGSHGSSPPLQVQSPSQGSGSSGSPTGQPEKRHICTVCGKGFSYFSILESHKRSHTGEKPYNCHFCQKTFAQKATLQVHERTHTGERPYKCRYCEKTFAQYGTKTVHEKSAHLGIRNYKCPKCDKLLSSPSALYTHKKTHGDKTFRCDFCPKTFALKNYLKLHVKQVHEQNERKHVCVYCNKGFAYAGSLQVHVRTHTGERPYVCKFCPKAFASQGNLQSHERTHTGERPYSCQFCQRTFIQKSQLTAHESTHLTQKHSVNPDSTTADILPVAGSVTDHQMVGNYECTFCNKKYPYASSLYIHMRKHTEKSAYSCDGCGKPYSQKISLNIHQDQCEAFKNRLKTTDSQFSHNCDGCGKSFVQRIALQIHVDSCEPHKNLARLKLSQQQNQNQNSDSESDTEMKICPLPNPPLTLAPTHQQIPPPVNIYAQQPPPNPLGSILGNTSLTPQTLNFGLPSLSSASFSSLNAHAPFTPVELPNSADFGPLTASKPHAVPFHPSEMCLSAFRKVPESSSISGLGSLSTSILSTQLLLQLQHTPDFNYLLNQNLLSSLAGLSGLSATLGPQLQATTPTSANQQPFLMAAPSAVQPLV
- soluble on expression in E. coli: not soluble

Sequence: MGSDKIHHHHHHMIKLIVSDIDGTLVDSQGQLLPATITGVQAAVARGAQMVLASARSPKGMFGIAQQLGINSTMIAYNGALTATTDVNDRLTVFEEQAVDPKLAQAVQTVVAHDWPAASISIYSNNNWLVATNGPWEQQEATGIGYAPHVTDLGTWLQRMPTPVHKMMIMADPDIIQAIEQRLSRNEFSGLAVYRSKETYLEIVAAGVTKAAALMKLLQDDQVTPAETLAFGDNFNDVAMLQTAGIGVAMANAPQPVKEAANIVTTDNNHNGIQLTLAQYFADVTR
- soluble on expression in E. coli: not soluble

Sequence: MPAENSVEVHRLRKSVGQGEHELSILTGVELVVKRGETIALIGESGSGKSTLLAILAGLDDGSSGEVSLVGKPLHQMDEEARAQLRAQHVGFVFQSFMLIPTLNALENVELPALLRGENSGQSKAGAKALLEQLGLGKRLDHLPAQLSGGEQQRVALARAFNGRPDVLFADEPTGNLDRQTGDKIADLLFSLNREHGTTLILVTHDPALAARCDRRLRLVNGQLQEEA
- soluble on expression in E. coli: not soluble

Sequence: MKQLTLAKTVKGVGIGLHKGEPIEITLEPLEANSGIVFFRSDLNASYKASPENVINTQMATVLGDDRGFISTIEHLMSAINAYGIDNVRIVLNANEAPVMDGSSISFCMMLDEAGVKELDAPKKIMVIKKPIEVRDGNKFVRLTPTKEPRINYTIKFDNAVIGEQSYNFEFSKKNYIENIARARTFGFLKDVQALRSMNLALGGSLENTIVVDENRILNPEGLRFKDEFVRHKILDAIGDLTLLGYRVFGDYTSYAGSHHLNHLLTKEVLKDKDAYEIVSLEKTTQKAYEKVFALEHHHHHH
- soluble on expression in E. coli: soluble

Sequence: ITGTSTVGVGRGVLGDQKNINTTYSTYYYLQDNTRGNGIFTYDAKYRTTLPGSLWADADNQFFASYDAPAVDAHYYAGVTYDYYKNVHNRLSYDGNNAAIRSSVHYSQGYNNAFWNGSQMVYGDGDGQTFIPLSGGIDVVAHELTHAVTDYTAGLIYQNESGAINEAISDIFGTLVEFYANKNPDWEIGEDVYTPGISGDSLRSMSDPAKYGDPDHYSKRYTGTQDNGGVHINSGIINKAAYLISQGGTHYGVSVVGIGRDKLGKIFYRALTQYLTPTSNFSQLRAAAVQSATDLYGSTSQEVASVKQAFDAVGVK
- soluble on expression in E. coli: soluble
